Results reported in paper PMC4807051, “Determinants of Cofactor Specificity for the Glucose-6-Phosphate Dehydrogenase from Escherichia coli: Simulation, Kinetics and Evolutionary Studies” (PLoS ONE, 2016).

How the values were obtained:
[1] = tested on: T1, NC(=O)c1ccc[n+]([C@@H]2O[C@H](COP(=O)(O)OP(=O)(O)OC[C@H]3O[C@@H](n4cnc5c(N)ncnc54)[C@H](O)[C@@H]3O)[C@@H](O)[C@H]2O)c1; experiment: purified protein; type: biochemical, Escherichia coli; conditions: 25°C, apparent
T1 construct: full length; N-terminal 6xHis tag cut by TEV protease (Gly-His left before Met1); plasmid pET-TEV-EcG6PDH from pETG6PDH

[2] = tested on: T2, NC(=O)c1ccc[n+]([C@@H]2O[C@H](COP(=O)(O)OP(=O)(O)OC[C@H]3O[C@@H](n4cnc5c(N)ncnc54)[C@H](OP(=O)(O)O)[C@@H]3O)[C@@H](O)[C@H]2O)c1; experiment: purified protein; type: biochemical, Escherichia coli; conditions: 25°C, apparent
T2 construct: full length; N-terminal 6xHis tag cut by TEV protease (Gly-His left before Met1); plasmid pET-TEV-EcG6PDH from pETG6PDH

What does the source list for “EcG6PDH; glucose-6-phosphate dehydrogenase from Escherichia coli (Escherichia coli K-12; K18T)”?
Km ([1]; near-saturating G6P (15 mM)): 8.352 ± 0.307 mM; kcat ([1]; near-saturating G6P (15 mM)): 298 ± 4 s⁻¹; kcat/Km ([1]; near-saturating G6P (15 mM)): 30000 ± 1000 M⁻¹ s⁻¹; Km ([2]; near-saturating G6P (15 mM)): 0.243 ± 0.0053 mM; kcat ([2]; near-saturating G6P (15 mM)): 282 ± 1 s⁻¹; kcat/Km ([2]; near-saturating G6P (15 mM)): 1.1e+06 ± 30000 M⁻¹ s⁻¹

How did the Km ([1]; near-saturating G6P (40 mM)) turn out when “EcG6PDH; glucose-6-phosphate dehydrogenase from Escherichia coli (Escherichia coli K-12; K18A/R50A)” was run?
Its Km is 11.736 ± 0.804 mM.

What about the kcat ([1]; near-saturating G6P (40 mM)) of the same substance?
The kcat was 165 ± 4 s⁻¹.

And the kcat/Km ([1]; near-saturating G6P (40 mM))?
The kcat/Km was 10000 ± 700 M⁻¹ s⁻¹.

And the Km ([2]; near-saturating G6P (40 mM))?
Its Km is 17.696 ± 1.453 mM.

What about the kcat ([2]; near-saturating G6P (40 mM)) of the same substance?
The kcat was 185 ± 7 s⁻¹.

And the kcat/Km ([2]; near-saturating G6P (40 mM))?
The kcat/Km was 10000 ± 900 M⁻¹ s⁻¹.

With “EcG6PDH; glucose-6-phosphate dehydrogenase from Escherichia coli (Escherichia coli K-12; K18A)” as the substance, how does the Km ([1]; near-saturating G6P (40 mM)) read?
Its Km is 2.477 ± 0.26 mM.

And the kcat ([1]; near-saturating G6P (40 mM))?
The kcat was 109 ± 2 s⁻¹.

And the kcat/Km ([1]; near-saturating G6P (40 mM))?
Its kcat/Km is 40000 ± 4000 M⁻¹ s⁻¹.

What about the Km ([2]; near-saturating G6P (40 mM)) of the same substance?
Its Km is 0.099 ± 0.003 mM.

What about the kcat ([2]; near-saturating G6P (40 mM)) of the same substance?
Its kcat is 143 ± 1 s⁻¹.

And the kcat/Km ([2]; near-saturating G6P (40 mM))?
The kcat/Km was 1.4e+06 ± 40000 M⁻¹ s⁻¹.

With “EcG6PDH; glucose-6-phosphate dehydrogenase from Escherichia coli (Escherichia coli K-12; R50A)” as the substance, how does the Km ([1]; near-saturating G6P (50 mM)) read?
Its Km is 14.662 ± 2.176 mM.

What about the kcat ([1]; near-saturating G6P (50 mM)) of the same substance?
The kcat was 171 ± 10 s⁻¹.

What about the kcat/Km ([1]; near-saturating G6P (50 mM)) of the same substance?
The kcat/Km was 10000 ± 1000 M⁻¹ s⁻¹.

What about the Km ([2]; near-saturating G6P (50 mM)) of the same substance?
Its Km is 0.382 ± 0.048 mM.

What about the kcat ([2]; near-saturating G6P (50 mM)) of the same substance?
The kcat was 189 ± 5 s⁻¹.

And the kcat/Km ([2]; near-saturating G6P (50 mM))?
Its kcat/Km is 500000 ± 60000 M⁻¹ s⁻¹.

For “EcG6PDH; glucose-6-phosphate dehydrogenase from Escherichia coli (Escherichia coli K-12)”, which Km ([1]; near-saturating G6P) is on record?
The Km was 5.09 ± 0.4 mM.

What about the kcat ([1]; near-saturating G6P) of the same substance?
Its kcat is 288 ± 5 s⁻¹.

What about the kcat/Km ([1]; near-saturating G6P) of the same substance?
The kcat/Km was 60000 ± 4000 M⁻¹ s⁻¹.

What about the Km ([2]; near-saturating G6P) of the same substance?
The Km was 0.0075 ± 0.0008 mM.

What about the kcat ([2]; near-saturating G6P) of the same substance?
Its kcat is 174 ± 2 s⁻¹.

What about the kcat/Km ([2]; near-saturating G6P) of the same substance?
The kcat/Km was 2.32e+07 ± 2.4e+06 M⁻¹ s⁻¹.
